# Laboratory results as given in article PMC4549619, “Engineering catechol 1, 2-dioxygenase by design for improving the performance of the cis, cis-muconic acid synthetic pathway in Escherichia coli” (Scientific Reports, 2015).
# B1: catechol 1,2-dioxygenase (CatA) (Acinetobacter baylyi ADP1) (protein)
# chain: MEVKIFNTQDVQDFLRVASGLEQEGGNPRVKQIIHRVLSDLYKAIEDLNITSDEYWAGVAYLNQLGANQEAGLLSPGLGFDHYLDMRMDAEDAALGIENATPRTIEGPLYVAGAPESVGYARMDDGSDPNGHTLILHGTIFDADGKPLPNAKVEIWHANTKGFYSHFDPTGEQQAFNMRRSIITDENGQYRVRTILPAGYGCPPEGPTQQLLNQLGRHGNRPAHIHYFVSADGHRKLTTQINVAGDPYTYDDFAYATREGLVVDAVEHTDPEAIKANDVEGPFAEMVFDLKLTRLVDGVDNQVVDRPRLAV
# Columns and labels:
# [1] = test system: Oc1ccccc1O; assay: initial rates, OD260 product formation, Michaelis-Menten nonlinear fit; format: biochemical, Acinetobacter baylyi; conditions: 100 mM potassium phosphate pH 7.4, 25 °C, catechol 0-200 μM
# From the text: (§1) initial rates, OD260 product formation, Michaelis-Menten nonlinear fit on catechol 1,2-dioxygenase (CatA)
# [2] = substrate: Oc1ccccc1O; assay: as above; format: biochemical, Acinetobacter baylyi; conditions: 100 mM potassium phosphate pH 7.4, 25 °C, catechol 0-200 μM; remark: listed apart in the source
# From the text: as §1
Molecule,Km [1] [µM],kcat [1] [s⁻¹],Km [2] [µM],kcat [2] [s⁻¹]
"catechol 1,2-dioxygenase (CatA) (Acinetobacter baylyi ADP1; L73F/P76A)",45.96 ± 7.691,39.5 ± 0.221,,
"catechol 1,2-dioxygenase (CatA) (Acinetobacter baylyi ADP1; P76A)",65.91 ± 7.753,46.56 ± 0.201,,
"catechol 1,2-dioxygenase (CatA) (Acinetobacter baylyi ADP1; L73F)",151.09 ± 10.299,5.65 ± 0.163,,
B1,,,7.88 ± 1.239,7.86 ± 0.248
